From patent US20040126856A1, “Factor ixa: factor Vllla interaction and methods therefor” (priority 2004, published 2004)
Blank lines part the entries; values can stand above or below the molecule they belong to. No end group written: not given here.

Key:
[1] = biological target: T1, IXaR333Q:A2 subunit interaction (Homo sapiens, UniProt P00740, R379Q); test: A2 558-565 peptide inhibition of IXaR333Q:A2 subunit interaction (factor X activation, tenase system); format: biochemical
T1 construct: made in house
Experimental: (§1) Determination of the Apparent Kdpeptide of Binding of Each Factor IXa to the A2 558-565 Peptide.
(§2) The apparent Kd (termed Kdpeptide) for binding of each factor IXa to the A2 558-565 peptide was determined by its ability to inhibit the respective IXa:A2 subunit interaction as measured by reduction in the rate of factor X activation in the tenase system. The reaction mixtures for both IXaWT and IXaPCEGF1 contained 100 nM factor IXa, 30 nM A2 subunit, 250 nM factor X, and 25 μM PL in TBS/BSA, pH 7.5 with 5 mM CaCl2. The reaction mixture for IXaR333Q contained 300 nM factor IXa instead of 100 nM used for IXaWT or IXaPCEGF1; concentrations of other components were the same. The amount of factor Xa generated was determined by hydrolysis of S-2222. The IC50 values were obtained using Eq. 2. Here, y is the rate of factor Xa formation in the presence of a given concentration of the A2 558-565 peptide represented by x, and a is the maximum rate of factor Xa formation in the absence of the A2 peptide. Eq. 3 was then used to obtain the apparent Kdpeptide values. In this context, A is the concentration of IXaWT, IXaPCEGF1, or IXaR333Q, and EC50 is the apparent KdA2 for the respective IXa:A2 subunit interaction.

[2] = biological target: IXaPCEGF1:A2 subunit interaction; test: A2 558-565 peptide inhibition of IXaPCEGF1:A2 subunit interaction (factor X activation, tenase system); format: biochemical, human; details: 100 nM IXaPCEGF1, 30 nM A2 subunit, 250 nM factor X, 25 μM PL (FIG. 5)
Experimental: as §1, §2

factor Xa generation = details: Fay et al., 1994; Fay and Koshibu, 1998; cited from earlier work
factor VIIIa = biological target: T2, factor VIIIa (Homo sapiens, UniProt P00451); test: EC50 for factor IXa-factor VIIIa interaction in the tenase complex; format: biochemical; details: 0.07 nM factor VIIIa, 480 nM factor X, 10 μM PL, 5 mM CaCl2; read-out: EC50 (functional Kd) for factor IXa-factor VIIIa interaction
T2 construct: to yield factor VIIIa, a heterotrimer composed of A1, A2 and A3-C1-C2 subunits; cleaved by thrombin at R372-S373, R740-S741, and R1689-S1690 to yield factor VIIIa
T2 sequence (P00451 20-391): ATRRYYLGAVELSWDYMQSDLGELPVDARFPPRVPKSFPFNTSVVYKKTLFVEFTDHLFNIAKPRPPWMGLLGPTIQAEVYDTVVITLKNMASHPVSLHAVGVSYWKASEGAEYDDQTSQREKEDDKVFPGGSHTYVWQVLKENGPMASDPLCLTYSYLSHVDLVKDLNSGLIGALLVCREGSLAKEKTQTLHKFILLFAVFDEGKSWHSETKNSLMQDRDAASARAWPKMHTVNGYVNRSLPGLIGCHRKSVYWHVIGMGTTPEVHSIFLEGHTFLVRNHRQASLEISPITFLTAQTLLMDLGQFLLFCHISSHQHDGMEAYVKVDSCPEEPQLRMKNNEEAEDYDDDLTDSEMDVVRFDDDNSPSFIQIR
T2 sequence (P00451 392-759): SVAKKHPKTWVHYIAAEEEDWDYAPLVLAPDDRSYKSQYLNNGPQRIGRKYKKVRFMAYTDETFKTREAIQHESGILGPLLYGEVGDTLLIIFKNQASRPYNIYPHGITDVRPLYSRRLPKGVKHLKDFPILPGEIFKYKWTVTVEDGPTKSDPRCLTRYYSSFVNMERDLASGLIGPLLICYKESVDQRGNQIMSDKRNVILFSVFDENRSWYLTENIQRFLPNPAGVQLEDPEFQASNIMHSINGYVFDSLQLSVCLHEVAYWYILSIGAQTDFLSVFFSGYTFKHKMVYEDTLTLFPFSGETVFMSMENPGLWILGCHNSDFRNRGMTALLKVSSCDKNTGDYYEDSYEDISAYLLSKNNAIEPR
T2 sequence (P00451 1709-2351): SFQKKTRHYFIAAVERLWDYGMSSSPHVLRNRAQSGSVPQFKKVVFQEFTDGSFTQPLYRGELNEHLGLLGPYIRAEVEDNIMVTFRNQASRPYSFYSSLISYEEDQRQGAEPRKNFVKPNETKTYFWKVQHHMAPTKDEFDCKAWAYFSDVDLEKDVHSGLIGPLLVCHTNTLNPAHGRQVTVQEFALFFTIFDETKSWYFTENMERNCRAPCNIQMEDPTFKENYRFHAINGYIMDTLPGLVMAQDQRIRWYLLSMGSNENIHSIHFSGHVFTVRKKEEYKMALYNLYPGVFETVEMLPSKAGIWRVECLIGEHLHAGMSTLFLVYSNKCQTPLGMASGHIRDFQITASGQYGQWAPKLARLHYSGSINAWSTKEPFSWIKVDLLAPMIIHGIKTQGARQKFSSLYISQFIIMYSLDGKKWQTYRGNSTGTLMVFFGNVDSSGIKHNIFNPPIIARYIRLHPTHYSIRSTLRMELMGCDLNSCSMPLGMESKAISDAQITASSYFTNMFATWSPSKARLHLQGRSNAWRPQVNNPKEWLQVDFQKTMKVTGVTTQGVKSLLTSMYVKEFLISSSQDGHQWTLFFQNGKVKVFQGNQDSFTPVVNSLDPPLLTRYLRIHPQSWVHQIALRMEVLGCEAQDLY
Experimental: Determination of the EC50 of for Factor IXa-Factor VIIIa Interaction in the Tenase Complex
These experiments are performed with normal factor IXa in the presence of phospholipid (PL) vesicles. 50-μl reaction mixtures in TBS-BSA (50 mM Tris-HCl, pH 7.4, 1 mg/ml BSA) with 5 mM CaCl2 and 10 μM PL are prepared containing a fixed concentration of factor VIIIa (0.07 nM) and various concentrations of factor IXa (0-20 nM) at a constant concentration of factor X (480 nM), which is added last to initiate the reaction. The reaction is carried out at 37° C. for 30-120 seconds at which time 1 μl of 0.5 M EDTA is added to stop further generation of factor Xa. A 40 μl aliquot is added to a 0.1-mL quartz cuvette containing a synthetic substrate S-2222 in 75 μl of TBS-BSA, pH 7.4. The final concentration of S-2222 is 100 μM. The p-nitroaniline release is measured continuously (ΔA405/min) for up to 20 minutes (Mathur et al., 1997). Factor Xa generated is calculated from a standard curve constructed using factor Xa prepared by insolubilized Russell's viper venom. In control experiments, at each factor X concentration used, the rate of factor Xa generation is also measured at various concentrations of normal factor IXa in the absence of factor VIIIa; these control values are ˜5% of the experimental values in the presence of factor VIIIa and are subtracted before analysis of the data. […]

[3] = biological target: factor IXaPCEGF1 (factor IXa replacement mutant in which the EGF1 domain is replaced by that of protein C) (human) (UniProt P04070); test: calculated from apparent Kdpeptide, against WT
[4] = biological target: factor IXaPCEGF1 (factor IXa replacement mutant in which the EGF1 domain is replaced by that of protein C) (human) (UniProt P04070); test: apparent Kdpeptide against that of WT
[5] = biological target: T3, factor IXaR333Q (factor IXa point mutant in which Arg333 is replaced by Gln) (human, UniProt P00740 47-190; P00740 227-461, gamma-carboxyglutamic acid residues in the Gla domain (normal Gla content)); test: peptide inhibition of IXaR333Q:A2 interaction; 300 nM IXa, 30 nM A2, 250 nM factor X; factor Xa generation (FIG. 5)
T3 construct: R333 is c165 in chymotrypsin numbering; also called IXR333Q
Experimental: (§3) Factor Xa generation was determined by S-2222 hydrolysis, and the curves represent best fit to the IC₅₀ four-parameter logistic equation (Eq. 2).
(§4) The amount of factor Xa generated was determined by hydrolysis of S-2222. The IC₅₀ values were obtained using Eq. 2. […] Eq. 3 was then used to obtain the apparent Kdpeptide values.

[6] = biological target: T3, factor IXaR333Q (factor IXa point …); test: peptide inhibition of IXa:A2 interaction; factor Xa generation (FIG. 5)
Experimental: as §3, §4

[7] = biological target: T4, factor IXaWT (wild-type recombinant factor IX activated by factor XIa) (human, UniProt P00740 47-190; P00740 227-461, gamma-carboxyglutamic acid residues in the Gla domain (residues 1-40, 12 Gla; normal Gla content)); test: peptide inhibition of IXaWT:A2 in tenase assay (FIG. 5); IC50 converted by Cheng-Prusoff; apparent Kdpeptide
T4 construct: Two-chain, disulfide-linked protease; also called IXWT
Experimental: as §4
(§5) The Cheng and Prusoff relationship (Cheng and Prusoff, 1973; Craig, 1993) was then used to obtain apparent Kdpeptide values for each factor IXa protein.

[8] = biological target: factor IXaPCEGF1 (factor IXa replacement mutant in which the EGF1 domain is replaced by that of protein C) (human) (UniProt P04070); test: peptide inhibition of IXaPCEGF1:A2 interaction; 100 nM IXa, 30 nM A2, 250 nM factor X; factor Xa generation (FIG. 5)
[9] = biological target: factor IXaPCEGF1 (factor IXa replacement mutant in which the EGF1 domain is replaced by that of protein C) (human) (UniProt P04070); test: peptide inhibition of IXaPCEGF1:A2 in tenase assay (FIG. 5); IC50 converted by Cheng-Prusoff; apparent Kdpeptide
[10] = biological target: T3, factor IXaR333Q (factor IXa point …); test: peptide inhibition of IXaR333Q:A2 in tenase assay (FIG. 5); IC50 converted by Cheng-Prusoff; apparent Kdpeptide
Experimental: as §4

[11] = biological target: T3, factor IXaR333Q (factor IXa point …); test: apparent Kdpeptide against that of WT
Description: Eq. 3 was then used to obtain the apparent Kdpeptide values.
as §5

[12] = biological target: T4, factor IXaWT (wild-type recombinant …); test: peptide inhibition of IXaWT:A2 interaction; 100 nM IXa, 30 nM A2, 250 nM factor X; factor Xa generation (FIG. 5)
Experimental: as §3, §4

[13] = biological target: factor IXaPCEGF1 (factor IXa replacement mutant in which the EGF1 domain is replaced by that of protein C) (human) (UniProt P04070); test: calculated from apparent Kdpeptide (RT ln Kd, 298 K)

T3 sequence (P00740 47-190, change not shown, form in doubt, chain 1 of 2): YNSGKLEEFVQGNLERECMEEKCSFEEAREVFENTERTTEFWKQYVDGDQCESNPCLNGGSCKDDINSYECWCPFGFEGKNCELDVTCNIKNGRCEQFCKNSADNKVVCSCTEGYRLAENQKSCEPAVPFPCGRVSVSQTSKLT
T3 sequence (P00740 other isoform, or with tags, fused parts or gaps mutant, form in doubt, chain 2 of 2): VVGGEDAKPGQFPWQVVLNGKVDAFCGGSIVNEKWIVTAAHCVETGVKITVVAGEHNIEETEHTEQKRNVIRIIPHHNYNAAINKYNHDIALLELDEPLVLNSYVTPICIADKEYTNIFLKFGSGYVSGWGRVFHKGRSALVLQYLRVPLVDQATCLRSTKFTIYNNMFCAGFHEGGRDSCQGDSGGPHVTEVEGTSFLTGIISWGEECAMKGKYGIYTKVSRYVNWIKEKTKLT
T4 sequence (P00740 47-190, form in doubt, chain 1 of 2): as the sequence (P00740 47-190, change not shown, form in doubt, chain 1 of 2) above
T4 sequence (P00740 227-461, form in doubt, chain 2 of 2): as the sequence (P00740 other isoform, or with tags, fused parts or gaps mutant, form in doubt, chain 2 of 2) above, with Q153R counted along it
T1 sequence (P00740 47-191): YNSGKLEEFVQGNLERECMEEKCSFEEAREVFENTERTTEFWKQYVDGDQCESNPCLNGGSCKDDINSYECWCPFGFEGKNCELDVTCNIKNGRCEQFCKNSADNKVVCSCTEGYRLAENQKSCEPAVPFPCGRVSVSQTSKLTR
T1 sequence (P00740 227-461 R379Q): as the sequence (P00740 other isoform, or with tags, fused parts or gaps mutant, form in doubt, chain 2 of 2) above

- Fold higher IC50 for IXaR333Q:A2 than for IXaWT or IXaPCEGF1 [1]: ~9 fold
- IC50 [2]: ~8 µM
Molecule: SVDQRGNQ [A2 558-565 peptide]
- Effect on factor Xa generation in purified systems (factor Xa generation): inhibit factor Xa generation

- EC50 (factor VIIIa): ~0.0004 µM
Molecule: normal factor IXa: normal factor IXa used in the tenase complex of Example 2

- change in delta G° between the mutant and WT [3]: 0 kcal/mol
- fold-change in apparent Kd (mutant/WT) [4]: 1 fold
- IC50 [5]: ~70 µM
- fold higher IC50 than for IXaWT or IXaPCEGF1 [6]: ~9 fold
- Kd [7]: 4 µM
- IC50 [8]: 8 µM
- Kd [9]: 4 µM
- Kd [10]: 62 µM
- fold-change in apparent Kd (mutant/WT) [11]: 15 fold
- IC50 [12]: ~8 µM
- Gibbs free energy (delta G° peptide) [13]: 7.36 kcal/mol
B1: synthetic peptide corresponding to the A2 subunit residues 558-565 (Ser-Val-Asp-Gln-Arg-Gly-Asn-Gln) (peptide)
peptide: SVDQRGNQ
